Data published in patent US20260008852A1 (CRYSTAL BIOSCIENCE, published 2026).

T1: B7-H3 on CHO-K1 cells stably transfected with B7-H3 (GenScript #M00536) (UniProt Q5ZPR3 29-534, limits assumed)
T1 sequence (looked up): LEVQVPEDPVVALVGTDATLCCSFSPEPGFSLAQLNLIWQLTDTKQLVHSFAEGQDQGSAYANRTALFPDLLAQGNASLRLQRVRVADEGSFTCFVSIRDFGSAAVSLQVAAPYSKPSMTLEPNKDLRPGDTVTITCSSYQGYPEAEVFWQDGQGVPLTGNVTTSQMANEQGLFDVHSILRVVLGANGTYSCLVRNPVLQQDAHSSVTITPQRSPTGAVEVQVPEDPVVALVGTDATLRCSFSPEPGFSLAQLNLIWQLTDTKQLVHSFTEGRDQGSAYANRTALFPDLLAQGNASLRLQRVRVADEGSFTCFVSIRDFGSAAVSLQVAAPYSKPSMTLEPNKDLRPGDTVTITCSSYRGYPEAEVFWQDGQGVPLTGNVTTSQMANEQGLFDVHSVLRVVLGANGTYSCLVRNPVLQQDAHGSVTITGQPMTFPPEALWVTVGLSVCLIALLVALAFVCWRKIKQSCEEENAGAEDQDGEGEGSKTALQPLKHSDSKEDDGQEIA


Target: T1, B7-H3 on CHO-K1 cells stably …
Assay: cell-based or functional assay

| Binder | ADCC reporter assay, EC50 Value, CHOK1/B7-H3 cells | ADCC reporter assay, Max RLU, CHOK1/B7-H3 cells |
| --- | --- | --- |
| 40633p1.2.E5 IgG (antibody, V domains shown) VH: EVQLLESGGGLVQPGGSLRLSCAASGFTFDGYGMSWVRQAPGKGLEWVSAISGNSGSIYYADSVKGRFTISRDNSKNTLYLQMNSLRAEDTAAYYCAKEKWKHFIYYGMDVWGQGTTVTVSS VL: not shown | 26.8 ng/mL | 669000 RLU |
| 40579p1.C2 IgG (antibody, V domains shown) VH: EVQLLESGGDLVQPGGSLRLSCAASGFNFSSYWMSWVRQAPGKGLEWVSGISISYGGNAYYADSVKGRFTVSRDNSKNTLYLQMNSLRAEDTAVYYCGRDRSPYQYRSMDVWGQGTTVTVSS VL: EIVLTQSPATLSVSPGERATFSCRASQTIGNKLAWYQQKPGQAPRLLIFSASTRATDIPDRFSGSGSGTDFTLTISSLQSEDFAVYYCQQYNNWPPLTFGGGTKVEIK | 11.6 ng/mL | 843000 RLU |
| 40579p1.D8 IgG (antibody, V domains shown) VH: EVQLLESGGGLVQPGGSLRLSCAASGFTFSDYYMSWVRQAPGKGLEWVSSISISYGGTTYYADSVKGRFTISRDNSKNTLYLQMNSLRAEDTAVYYCARDRSPYQCRSMDVWGQGTTVTVSS VL: EIVLTQSPGTLSLSPGERATLSCRASQSIRSDLAWYQQKPGQAPRLLIYNTVTRATGVPDRFSGSGSGTEFTLTISSLQSEDFAVYYCQQYNSWPPLTFGGGTKVEIK | 75 ng/mL | 728000 RLU |
| 40579p1.G1 IgG (antibody, V domains shown) VH: EVQLLESGGGLVQPGGSLRLSCAASGFNFSSYWMSWVRQAPGKGLEWVSGISISYGGNAYYADSVKGRFTVSRDNSKNTLYLQMNSLRAEDTAVYYCGRDRSPYQYRSMDVWGQGTTVTVSS VL: EIVLTQSPGTLSLSPGERATLSCRASQSIRSDLAWYQQKPGQAPRLLIYGASSRATGIPARFSGSGSGTEFTLTISSLQSEDFAVYYCQQYNNWPPLTFGGGTKVEIK | 11.5 ng/mL | 806000 RLU |
| 40579p1.D1 IgG (antibody, V domains shown) VH: EVQLLESGGGLVQPGGSLRLSCAASGFTFSDYYMSWVRQAPGKGLEWVSSISISYGGTTYYADSVKGRFTISRDNSKNTLYLQMNSLRAEDTAVYYCARDRSPYQCRSMDVWGQGTTVTVSS VL: EIVLTQSPGSLSLSPGERATLSCRASQSVNSDLAWYQQKPGQAPRLLIYAASSRATGIPARFSGSGSGTEFTLTISSLQSEDFAVYYCQQYNNWPPLTFGGGTKVEIK | 274 ng/mL | 744000 RLU |
| 40579p1.H7 IgG (antibody, V domains shown) VH: EVQLLESGGDLVQPGGSLRLSCAASGFNFSSYWMSWVRQAPGKGLEWVSGISISYGGNAYYADSVKGRFTVSRDNSKNTLYLQMNSLRAEDTAVYYCGRDRSPYQYRSMDVWGQGTTVTVSS VL: EIVLTQSPGTLSLSPGERATLSCRASQSIRSDLAWYQQKPGQAPRLLIYGASSRATGIPARFSGSGSGTEFTLTISSLQSEDFAVYYCQQYNNWPPLTFGGGTKVEIK | 12.6 ng/mL | 833000 RLU |
| 40579p1.F7 IgG (antibody, V domains shown) VH: EVQLLESGGGLVQPGGSLRLSCAASGFTFSDYYMSWVRQAPGKGLEWVSGISISYGGNAYYADSVKGRFTVSRDNSKNTLYLQMNSLRAEDTAVYYCGRDRSPYQYRSMDVWGQGTTVTVSS VL: EIVLTQSPGTLSLSPGERATLTCRASQSVGDFLAWYQQKPGQAPRLLIYGASTRAAGIPARFRGSGSGTDFTLTISSLQSEDFAVYYCQQYKNWPPLTFGGGTKVEIK | 12.4 ng/mL | 641000 RLU |
| 40511p1.1.G1 IgG (antibody, V domains shown) VH: DVQLVESGGGVVRPGESLRLSCAASGFTFSSYAESWVRQAPGEGLEWVSIISGSGGNTFYADSVKGRFTISRDNSKNTLYLQMNSLRAEDTAVYYCARFAYGFFDYWGLGTLVTVSS VL: EIVLTQSPGTLSVSPGEGATLSCRASQTVGSKLAWYQQKPGQPPSLLIYDASTRATGIPDRFSGSGSGTDFTLTISSLQSEDFAVYYCQQYRNWPPLTFGGGTKVEIK | 41.6 ng/mL | 679000 RLU |
| 40511p1.2.G10 IgG (antibody, V domains shown) VH: DVQLVESGGGVVRPGESLRLSCAASGFTFSNYAMNWVRQAPGEGLEWVSRINYKGYNITYYADSVKGRFTISRDNSKNTLYLQMNSLRAEDTAVYYCAKSGSNSNNFFDYWGLGTLVTVSS VL: EIVLTQSPGTLSLSPGERATLSCRASQTVGSKLAWYQQKPGQAPRLLIYGASTRATDIPDRFSGSGSGTEFTLTISSLQSEDFAVYYCQQYINWPPLSFGGGTKVEIK | ~10.2 ng/mL | 893000 RLU |
| 40511p1.2.A4 IgG (antibody, V domains shown) VH: DVQLVESGGGVVRPGESLRLSCAASGFTFSSYAESWVRQAPGEGLEWVSIISGSGGNTFYADSVKGRFTISRDNSKNTLYLQMNSLRAEDTAVYYCARFAYGFFDYWGLGTLVTVSS VL: EIVLTQSPGTLSVSPGERATLSCRASQTVGSKLAWYQQKPGQAPRLLIYDASTRATDIPDRFSGSGSGTDFTLTISSLQSEDFAVYYCQQYRNWPPLTFGGGTKVEIK | 31.8 ng/mL | 548000 RLU |
| 40511p1.2.A12 IgG (antibody, V domains shown) VH: DVQLVESGGGVVRPGESLRLSCAASGFTFSSYAESWVRQAPGEGLEWVSIISGSGGNTFYADSVKGRFTISRDNSKNTLYLQMNSLRAEDTAVYYCARFAYGFFDYWGLGTLVTVSS VL: EIVLTQSPGTLSVSPGERATLSCRASQTVGSKLAWYQQKPGQPPSLLIYDASTRATGIPDRFSGSGSGTDFTLTISSLQSEDFAVYYCQQYRNWPPLTFGGGTKVEIK | 35.2 ng/mL | 598000 RLU |
| 40511p1.1.A1 IgG (antibody, V domains shown) VH: DVQLVESGGGVVRPGESLRLSCAASGFTFSNYAMNWVRQAPGEGLEWVSRINYKGYNITYYADSVKGRFTISRDNSKNTLYLQMNSLRAEDTAVYYCAKSGSNSNNFFDYWGLGTLVTVSS VL: EIVLTQSPGTLSVSPGERATLSCRASQSVNSKLAWYQQRPGQAPRLLIYDASSRATGIPDRFSGSGSGTDFTLTISRLEPEDFAVYYCQQYKNWPPLTFGGGTKVEIK | 12.4 ng/mL | 820000 RLU |
| 40511p1.1.H5 IgG (antibody, V domains shown) VH: DVQLVESGGGVVRPGESLRLSCAASGFTFSNYAMNWVRQAPGEGLEWVSRINYKGYNITYYADSVKGRFTISRDNSKNTLYLQMNSLRAEDTAVYYCAKSGSNSNNFFDYWGLGTLVTVSS VL: EIVLTQSPGTLSLSPGERATLSCRASQSIRSDLAWYQQKPGQAPRLLIYGAASRATGIPARFSGSGSGTEFTLTISSLQSGDFAVYYCQQYNSWPPLTFGGGTKVEIK | 16.4 ng/mL | 762000 RLU |
| 40511p1.1.D6 IgG (antibody, V domains shown) VH: DVQLVESGGGVVRPGESLTLSCAASGFTINSYAVSWVRQAPGEGLEWVSGISGSGVRYYADSVKGRFTISRDNSNNTLYLQMNSLRAEDTAVYYCARSNKVTWNNFFDYWGLGTLVTVSS VL: EVVLTQSPGTLTLSPGERATLSCRASRSILTSLAWYQQKPGQAPRLLIYNTVTRATGIPARFSGSGSGTEFTLTINSLQSEDFAVYYCQQYYDWPPLTFGGGTKVEIK | 14 ng/mL | 751000 RLU |
| 40511p1.1.G3 IgG (antibody, V domains shown) VH: DVQLVESGGGVVRPGESLTLSCAASGFTINSYAVSWVRQAPGEGLEWVSGISGSGVRYYADSVKGRFTISRDDSNNTLYLQMNSLRAEDTAVYYCARSNKVTWNNFFDYWGLGTLVTVSS VL: EVVLTQSPGTLTLSPGERATLSCRASRSILTSLAWYQQKPGQAPRLLIYNTVTRATGIPARFSGSGSGTEFTLTINSLQSEDFAVYYCQQYYDWPPLTFGGGTKVEIK | 14.1 ng/mL | 723000 RLU |
| 40633p1.2.E1 IgG (antibody, V domains shown) VH: EVQLLESGRGLVQPGGSLRLSCAASGFTVSYYGMSWVRQAPGKGLEWVSVIKQDGSEEYYADSVKGRFTISRDNSKNTLYLQMNSLRAEDTAVYYCARHWNDYSNGMNVWGQGTTVTVSS VL: QSVLTQPPSASGTPGQRVTISCSGSTSNVGDRYVYWYQQLPGTAPKLLIYLDDQRPSGVPDRFSGSKSGTSASLAISGLQSEDEADYYCASWDASLNGWVFGGGTKLTVL | 31 ng/mL | 725000 RLU |
| 40633p1.2.F3 IgG (antibody, V domains shown) VH: EVQLLESGGGLVQPGGSLRLSCAASGFTVSYYGMSWVRQAPGKGLEWVSVIKQDGSEEYYADSVKGRFTISRDNSKNTLYLQMNSLRAEDTAVYYCARHWNDYSNGMNVWGQGTTVTVSS VL: not shown | 30 ng/mL | 700000 RLU |
| 40633p1.1.A7 IgG (antibody, V domains shown) VH: EVQLLESGGGLVQPGGSLRLSCAASGFTVSYYGMSWVRQAPGKGLEWVSAIKQDGSEKYYADSVKGRFTISRDNSKNTLYLQMNSLRAEDTAVYYCARHWNDYSNAMNVWGQGTTVTVSS VL: QSVLTQPPSASGTPGQRVTISCSGSTSNIGRESVYWYQQLPGTAPKLLIYTIDQRPSGVPDRFSGSKSGTSASLAISGLQSEDEAVYYCASWDASLNGWVFGGGTKLTVL | ~12.5 ng/mL | 634000 RLU |
